What was measured:
Z-Arg-Arg-AMC = test system: T1, Z-Arg-Arg-AMC
T1 sequence: RR

[1] = test system: T2, pro-heparanase (H60), purified recombinant human 60 kDa latent heparanase
T2 sequence: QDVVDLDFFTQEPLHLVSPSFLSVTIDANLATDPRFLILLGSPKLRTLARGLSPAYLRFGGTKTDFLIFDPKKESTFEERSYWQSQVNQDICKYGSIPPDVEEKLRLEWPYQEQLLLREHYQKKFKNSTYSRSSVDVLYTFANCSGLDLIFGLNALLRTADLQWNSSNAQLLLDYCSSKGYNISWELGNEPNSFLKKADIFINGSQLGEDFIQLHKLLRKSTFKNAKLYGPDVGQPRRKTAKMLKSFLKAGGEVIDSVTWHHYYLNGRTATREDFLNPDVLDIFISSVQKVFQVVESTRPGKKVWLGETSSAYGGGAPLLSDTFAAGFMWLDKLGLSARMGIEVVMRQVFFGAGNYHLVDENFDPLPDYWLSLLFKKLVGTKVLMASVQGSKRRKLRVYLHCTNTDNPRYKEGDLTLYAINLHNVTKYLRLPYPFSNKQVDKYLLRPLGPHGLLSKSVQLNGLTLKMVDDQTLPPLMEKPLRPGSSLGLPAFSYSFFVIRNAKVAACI

[2] = test system: T3, Z-Pro-Lys-Lys-Glu-AMC (Peptide 1)
T3 sequence: PKKE

Substance: Cathepsin B
- Activity (δfluorescence) (δfluorescence) (Z-Arg-Arg-AMC): 53300
- heparanase activity after treatment (DMB assay) [1]: Cathepsin B did not activate the pro-heparanase
- processing of pro-heparanase in vitro (Western blot) [1]: Cathepsin B in the presence of heparin but not when the cathepsin B inhibitor CA074 was added, also processed the pro-heparanase
- Activity (δfluorescence) (δfluorescence) [2]: 8930

Substance: Cathepsin D
- heparanase activity after treatment (DMB assay) [1]: Cathepsin D treatment caused an increase in heparanase activity and pepstatin A inhibited this activation
- processing of pro-heparanase in vitro (Western blot) [1]: When heparin was included in the reaction mixture, heparanase was processed by cathepsin D and a 45 kDa polypeptide was detected

Substance: Cathepsin L
- Activity (δfluorescence) (δfluorescence) [2]: 0
